B1: 060717-L04 (protein)
chain: MALPVTALLLPLALLLHAARPQSVVTQPASVSGSPGQSITISCTGTSSDVGGYNYVSWYQQHPGKAPKLMIYDVSKRPSGVSNRFSGSKSGNTASLTISGLQAEDEADYYCSSYTSSSTLVFGGGTKLTVLGLEIQNPDPAVYQLRDSKSSDKSVCLFTDFDSQTNVSQSKDSDVYITDKCVLDMRSMDFKSNSAVAWSNKSDFACANAFNNSIIPEDTFFPSSDVPCDVKLVEKSFETDTNLNFQNLSVIGFRILLLKVAGFNLLMTLRLWSSRAKRSGSGVKQTLNFDLLKLAGDVESNPGPTSMDWIWRILFLVGAATGAHSFEEVQLVESGGAFVQPGGSLRLSCAASGFTFSSYAMTWVRQAPGKGLEWVSTISGRGRSTFYADSVKGRFTISRDNSKNTLYLQMNSLRAEDTAVYYCARYYHAGAFDLWGQGTLVTVSSTREDLKNVFPPEVAVFEPSKAEIAHTQKATLVCLATGFYPDHVELSWWVNGKEVHSGVCTDPQPLKEQPALNDSRYCLSSRLRVSATFWQNPRNHFRCQVQFYGLSENDEWTQDRAKPVTQIVSAEAWGRADCGITSASYHQGVLSATILYEILLGKATLYAVLVSALVLMAMVKRKDSRGRAKRSGSGATNFSLLKQAGDVEENPGPSRGHMTEYKPTVRLATRDDVPRAVRTLAAAFADYPATRHTVDPDRHIERVTELQELFLTRVGLDIGKVWVADDGAAVAVWTTPESVEAGAVFAEIGPRMAELSGSRLAAQQQMEGLLAPHRPKEPAWFLATVGVSPDHQGKGLGSAVVLPGVEAAERAGVPAFLETSAPRNLPFYERLGFTVTADVEVPEGPRTWCMTRKPGA
B2: 040716-H06 (protein)
chain: MALPVTALLLPLALLLHAARPDEFDVQLVESGGGLVQPGGSLRLSCAASGSIGGLNAMAWYRQAPGKERELVAGIFGVGSTRYADSVKGRFTISRDNSKNTVYLQMNSLRPEDTAVYYCRMSSVTRGSSDYWGQGTLVTVSSLEGGGGSGGGGSGGGGSGSGGSGSGGSGSGGSGSGGSFEVQLVESGGSLVQPGGSLRLSCAASGFTFDDYAMSWVRQVPGKGLEWVSSINWSGTHTDYADSVKGRFTISRNNANNTLYLQMNSLKSEDTAVYYCAKNWRDAGTTWFEKSGSAGQGTQVTVSSTREQKLISEEDGSGIQNPDPAVYQLRDSKSSDKSVCLFTDFDSQTNVSQSKDSDVYITDKCVLDMRSMDFKSNSAVAWSNKSDFACANAFNNSIIPEDTFFPSSDVPCDVKLVEKSFETDTNLNFQNLSVIGFRILLLKVAGFNLLMTLRLWSSRAKRSGSGVKQTLNFDLLKLAGDVESNPGPSRGHMTEYKPTVRLATRDDVPRAVRTLAAAFADYPATRHTVDPDRHIERVTELQELFLTRVGLDIGKVWVADDGAAVAVWTTPESVEAGAVFAEIGPRMAELSGSRLAAQQQMEGLLAPHRPKEPAWFLATVGVSPDHQGKGLGSAVVLPGVEAAERAGVPAFLETSAPRNLPFYERLGFTVTADVEVPEGPRTWCMTRKPGA
modifications: Polynucleotide encoding a Synthetic Immune Receptor (SIR)
B3: 040716-B03 (protein)
chain: MALPVTALLLPLALLLHAARPLEGKPIPNPLLGLDSTGSGEDLKNVFPPEVAVFEPSKAEIAHTQKATLVCLATGFYPDHVELSWWVNGKEVHSGVCTDPQPLKEQPALNDSRYCLSSRLRVSATFWQNPRNHFRCQVQFYGLSENDEWTQDRAKPVTQIVSAEAWGRADCGITSASYHQGVLSATILYEILLGKATLYAVLVSALVLMAMVKRKDSRGRAKRSGSGATNFSLLKQAGDVEENPGPTSMALPVTALLLPLALLLHAARPDEFDVQLVESGGGLVQPGGSLRLSCAASGSIGGLNAMAWYRQAPGKERELVAGIFGVGSTRYADSVKGRFTISRDNSKNTVYLQMNSLRPEDTAVYYCRMSSVTRGSSDYWGQGTLVTVSSLEGGGGSGGGGSGGGGSGSGGSGSGGSGSGGSGSGGSFEVQLVESGGSLVQPGGSLRLSCAASGFTFDDYAMSWVRQVPGKGLEWVSSINWSGTHTDYADSVKGRFTISRNNANNTLYLQMNSLKSEDTAVYYCAKNWRDAGTTWFEKSGSAGQGTQVTVSSTREQKLISEEDGSGIQNPDPAVYQLRDSKSSDKSVCLFTDFDSQTNVSQSKDSDVYITDKCVLDMRSMDFKSNSAVAWSNKSDFACANAFNNSIIPEDTFFPSSDVPCDVKLVEKSFETDTNLNFQNLSVIGFRILLLKVAGFNLLMTLRLWSSRAKRSGSGVKQTLNFDLLKLAGDVESNPGPSRGHMTEYKPTVRLATRDDVPRAVRTLAAAFADYPATRHTVDPDRHIERVTELQELFLTRVGLDIGKVWVADDGAAVAVWTTPESVEAGAVFAEIGPRMAELSGSRLAAQQQMEGLLAPHRPKEPAWFLATVGVSPDHQGKGLGSAVVLPGVEAAERAGVPAFLETSAPRNLPFYERLGFTVTADVEVPEGPRTWCMTRKPGA
modifications: Synthetic Immune Receptor (SIR)
B4: 031517-Q04 (protein)
chain: MALPVTALLLPLALLLHAARPLEGKPIPNPLLGLDSTGSGEDLKNVFPPEVAVFEPSKAEIAHTQKATLVCLATGFYPDHVELSWWVNGKEVHSGVCTDPQPLKEQPALNDSRYCLSSRLRVSATFWQNPRNHFRCQVQFYGLSENDEWTQDRAKPVTQIVSAEAWGRADCGITSASYHQGVLSATILYEILLGKATLYAVLVSALVLMAMVKRKDSRGRAKRSGSGATNFSLLKQAGDVEENPGPTSMALPVTALLLPLALLLHAARPQSVVTQPASVSGSPGQSITISCTGTSSDVGGYNYVSWYQQHPGKAPKLMIYDVSKRPSGVSNRFSGSKSGNTASLTISGLQAEDEADYYCSSYTSSSTLVFGGGTKLTVLGGGGGSGGGGSGGGGSEVQLVESGGAFVQPGGSLRLSCAASGFTFSSYAMTWVRQAPGKGLEWVSTISGRGRSTFYADSVKGRFTISRDNSKNTLYLQMNSLRAEDTAVYYCARYYHAGAFDLWGQGTLVTVSSTREQKLISEEDGSGIQNPDPAVYQLRDSKSSDKSVCLFTDFDSQTNVSQSKDSDVYITDKCVLDMRSMDFKSNSAVAWSNKSDFACANAFNNSIIPEDTFFPSSDVPCDVKLVEKSFETDTNLNFQNLSVIGFRILLLKVAGFNLLMTLRLWSSRAKRSGSGVKQTLNFDLLKLAGDVESNPGPSRGHMTEYKPTVRLATRDDVPRAVRTLAAAFADYPATRHTVDPDRHIERVTELQELFLTRVGLDIGKVWVADDGAAVAVWTTPESVEAGAVFAEIGPRMAELSGSRLAAQQQMEGLLAPHRPKEPAWFLATVGVSPDHQGKGLGSAVVLPGVEAAERAGVPAFLETSAPRNLPFYERLGFTVTADVEVPEGPRTWCMTRKPGA

Test system: target antigen-expressing cell line
Assay: Jurkat NFAT-GFP assay, coculture with target cell lines expressing the respective target antigen (summary Table 10A)
Type: cell-based, human
Parameters: key: The signs +/−, +, 2+ etc. after the name of the cell lines indicate the relative degree of positivity on the Jurkat-NFAT-GFP assay as measured by the % GFP positive cells; +: relative degree of positivity on the Jurkat-NFAT-GFP assay as measured by the % GFP positive cells; 2+: relative degree of positivity on the Jurkat-NFAT-GFP assay as measured by the % GFP positive cells
Procedure, shortened: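 Jurkat cells carrying an NFAT-driven GFP reporter and lentivirally expressing a SIR were cocultured with antigen-bearing target cells (E:T ~1:2) for about 4–18 h. GFP induction read by flow cytometry as % GFP+ cells, scored positive and graded (+/−, +, 2+) against parental Jurkat-NFAT-GFP cells.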

| Molecule | NFAT-GFP ASSAY Positive Cell lines (coculture with L363 cells) | NFAT-GFP ASSAY Positive Cell lines (coculture with U266 cells) | NFAT-GFP ASSAY Positive Cell lines (coculture with MCF7 cells) | NFAT-GFP ASSAY Positive Cell lines (coculture with SKBR3 cells) | NFAT-GFP ASSAY Positive Cell lines (coculture with A431 cells) |
| --- | --- | --- | --- | --- | --- |
| B1 | 2+ | + |  |  |  |
| B2 |  |  | MCF7 (+), SKBR3 (+) | MCF7 (+), SKBR3 (+) |  |
| B3 |  |  | MCF7 (+/−), SKBR3 | (+), A431 (+) | (+), A431 (+) |
| B4 | L363 (+/−) |  |  |  |  |
